In this experiment the target is human Siglec-8 on lung mast cells from COPD patients (human, UniProt Q9NYZ4 17-499). Kind of experiment: cell-based or functional assay.
Chain of human Siglec-8 on lung mast cells from COPD patients (Q9NYZ4 17-499): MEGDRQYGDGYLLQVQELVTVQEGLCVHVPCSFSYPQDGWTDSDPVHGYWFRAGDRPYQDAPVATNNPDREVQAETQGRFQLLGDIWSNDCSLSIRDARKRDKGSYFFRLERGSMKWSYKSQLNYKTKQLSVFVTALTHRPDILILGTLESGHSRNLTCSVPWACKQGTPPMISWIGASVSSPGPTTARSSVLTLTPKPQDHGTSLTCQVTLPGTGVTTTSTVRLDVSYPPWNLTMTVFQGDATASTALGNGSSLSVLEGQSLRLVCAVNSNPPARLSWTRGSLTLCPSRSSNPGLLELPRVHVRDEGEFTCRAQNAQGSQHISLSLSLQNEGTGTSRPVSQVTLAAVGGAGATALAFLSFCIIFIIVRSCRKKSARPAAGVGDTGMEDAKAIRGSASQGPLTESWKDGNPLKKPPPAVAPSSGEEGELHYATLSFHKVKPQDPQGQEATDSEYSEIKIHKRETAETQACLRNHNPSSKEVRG

B1: anti-Siglec-8 IgG4 antibody (HEKA) (antibody, V domains shown)
VH: EVQLVESGGGLVQPGGSLRLSCAASGFSLTIYGAHWVRQAPGKGLEWVGVIWAGGSTNYNSALMSRFTISKDNSKNTVYLQMNSLRAEDTAVYYCARDGSSPYYYSMEYWGQGTTVTVSS
VL: EIVLTQSPATLSLSPGERATLSCSATSSVSYMHWFQQKPGQAPRLLIYSTSNLASGIPARFSGSGSGTDFTLTISSLEPEDFAVYYCQQRSSYPFTFGPGTKLDIKR
As to B1, the “decrease in VEGF secreted into the cell supernatant by COPD lung tissue homogenates incubated overnight with antibody, relative to isotype control antibody” value is ~50%.

The record behind these values is patent US20190338027A1 (ALLAKOS, published 2019).
